Laboratory results from US7935785B2, “Selective substrates for matrix metalloproteinases” (Sanford-Burnham Medical Research Institute, priority 2001, dated 2011).

Columns and labels:
Format in all cases: biochemical
MMP-2 = target: T1, MMP-2 (Homo sapiens, UniProt P08253); test: Peptide substrate hydrolysis kinetics, fluorescamine incorporation assay (kcat/Km, selectivity ratio); conditions: MMP-2 substrates
T1 construct: the cDNA encoding the catalytic domain of MMP-2 was generated by PCR; made in house; host or cells: HEK 293 cells
T1 sequence (P08253 110-465 limits assumed): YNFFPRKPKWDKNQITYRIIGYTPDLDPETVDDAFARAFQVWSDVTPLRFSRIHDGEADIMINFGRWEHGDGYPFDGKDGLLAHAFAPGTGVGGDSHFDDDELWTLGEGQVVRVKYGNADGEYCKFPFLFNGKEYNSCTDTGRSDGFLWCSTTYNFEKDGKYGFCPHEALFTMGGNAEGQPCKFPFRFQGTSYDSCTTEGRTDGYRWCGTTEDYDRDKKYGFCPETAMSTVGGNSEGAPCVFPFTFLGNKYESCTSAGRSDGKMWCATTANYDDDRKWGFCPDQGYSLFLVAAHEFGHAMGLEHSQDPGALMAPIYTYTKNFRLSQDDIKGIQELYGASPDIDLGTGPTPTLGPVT
Protocol: (§1) In order to measure the selectivity of individual substrates for one metalloproteinase over another, representative polypeptides from the selected phage were synthesized and their rate of hydrolysis by several matrix metalloproteinases was determined. In some cases these representative polypeptide sequences contained an amino-terminal serine (S) and glycine (G) and/or a carboxyl-terminal threonine (T) and alanine (A) since these residues were used in the construction of the phage substrate library, although one skilled in the art will understand that other amino acid residues could be substituted at these positions. The kinetic parameters of substrate hydrolysis were measured using a fluorescamine incorporation assay that has been described previously (Ding et al., PNAS, 92:7627-7631 (1995); Coombs et al., Chem. and Biol. 5:475-488 (1998); Fields et al., J. Biol. Chem., 262:6221-6226 (1987); Netzel-Arnett., et al. J. Biol. Chem., 266:6747-6755 (1991)).
(§2) Briefly, individual metalloproteinases were incubated with the individual polypeptide substrates at concentrations ranging from 100-800 µM. At selected time points the reactions were stopped by the addition of 1,10 phenanthroline. Polypeptide hydrolysis was determined by the addition of fluorescamine followed by detection at an excitation wavelength of 355 nm and an emission wavelength of 460 nm. The data were transformed to double reciprocal plots (1/[S] vs 1/vi) to determine Km and kcat. In some cases Km and kcat could not be determined individually, but the specificity constant, kcat/Km, was derived by the equation: […] (Netzel-Arnett, supra, and Zumla et al., J. Immunol. Methods 149:69-76 (1992)).
(§3) The selectivity ratio of each polypeptide substrate was calculated by dividing the kcat/Km value for one matrix metalloproteinase by the kcat/Km value for the other matrix metalloproteinases that were tested. […] In many cases the polypeptide substrates are selective for one matrix metalloproteinase compared to several other matrix metalloproteinases.
(§4) The kinetic parameters of substrate hydrolysis were measured using a fluorescamine incorporation assay that has been previously described (Ding et al., PNAS, 92:7627-7631 (1995); Coombs et al., Chem. and Biol. 5:475-488 (1998); Fields et al., J. Biol. Chem., 262:6221-6226 (1987); Netzel-Arnett., et al. J. Biol. Chem., 266:6747-6755 (1991)). Briefly, MMP-2, MMP-9, MMP-7, or MMP-13 were incubated with individual peptide substrates at concentrations ranging from 100-800 μM in 50 mM Tris, pH 7.5, 100 mM NaCl, 10 mM CaCl2, 50 μM ZnCl2. At selected time points the reactions were stopped by the addition of 1,10-phenanthroline. Peptide hydrolysis was determined by the addition of fluorescamine followed by detection at λex 355 nm and λem 460 nm. The data were transformed to double reciprocal plots (1/[S] vs 1/vj) to determine Km and kcat. […] A double recipricol plot of the hydrolysis of peptide B 74 is shown as a representative plot (FIG. 4).

MT1-MMP = MT1-MMP (Homo sapiens, UniProt P50281); test: Peptide substrate hydrolysis kinetics, selectivity between MT1-MMP and MMP-9; conditions: MT1-MMP substrates
Protocol: as §1, §2, §3
Polypeptide substrates for Membrane type-Matrix Metalloproteinase 1 (MT1-MMP) were identified using substrate phage display as described for MMP-2 and MMP-9. Synthetic peptides that are analogous to the phage sequences were used to quantitate the level of selectivity between MT1-MMP and MMP-9 (see Table II).

MMP-9 = target: T2, MMP-9 (Homo sapiens, UniProt P14780); test: Peptide substrate hydrolysis kinetics, fluorescamine incorporation assay (kcat, Km, kcat/Km, selectivity ratio); conditions: for selectivity ratio: kcat/Km for MMP-9 divided by kcat/Km for MMP-1 / selectivity ratio: kcat/Km for MMP-9 divided by kcat/Km for MMP-7: MMP-9 substrates
T2 construct: a recombinant form of the catalytic domain of MMP-9 expressed in HEK 293 cells; made in house; host or cells: HEK 293 cells
T2 sequence (P14780 94-444 limits assumed): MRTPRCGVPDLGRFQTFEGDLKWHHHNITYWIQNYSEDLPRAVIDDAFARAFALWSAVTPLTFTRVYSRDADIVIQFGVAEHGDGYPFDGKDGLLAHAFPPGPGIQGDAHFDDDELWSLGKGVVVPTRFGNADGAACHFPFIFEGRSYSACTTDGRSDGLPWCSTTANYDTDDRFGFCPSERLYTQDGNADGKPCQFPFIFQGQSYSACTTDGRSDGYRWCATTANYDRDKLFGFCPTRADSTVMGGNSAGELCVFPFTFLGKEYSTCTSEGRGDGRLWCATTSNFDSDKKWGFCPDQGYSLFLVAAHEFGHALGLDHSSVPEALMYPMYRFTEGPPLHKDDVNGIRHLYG
Protocol: as §1, §2, §3, §4
The Michaelis constant (Km) and first-order rate constant of substrate peptide turnover (kcat) were measured by incubating a range of each peptide with MMP-9. Peptide hydrolysis was measured by incorporation of fluorescamine onto newly formed amino-termini as previously described. From these measurements, kcat and Km were derived for each peptide using double-reciprocal plots of 1/[S] vs 1/vj. Among the peptides, the kcat values ranged from 9 s^−1 to 703 and Km values were generally in the high micromolar to low millimolar range.

[1] = hydrolysis by MMP-9, Ala instead of Leu at P1′

Substance | selectivity ratio: kcat/Km for MMP-2 divided by kcat/Km for MMP-1 (MMP-2) | selectivity ratio: kcat/Km for MMP-2 divided by kcat/Km for MMP-7 (MMP-2) | selectivity ratio: kcat/Km for MMP-2 divided by kcat/Km for MMP-9 (MMP-2) | also measured
B74: MMP-2 selective substrate peptide from phage clone B74, sequence E-S-L-A-Y-Y-T-A (ESLAYYTA) | 140 | 354 | 108 | 
A13: MMP-2 selective substrate peptide from phage clone A13, sequence G-A-V-S-W-L-L-T (GAVSWLLT) | 28 | 13 | 15 | 
A176: MT1-MMP selective substrate peptide from phage clone A176, sequence S-G-R-S-E-N-I-R-T-A (Table V) (RSENIRT) |  |  |  | selectivity ratio: kcat/Km for MT1-MMP divided by kcat/Km for MMP-9 (MT1-MMP): 73
C9: MMP-2 selective substrate peptide from phage clone C9, sequence R-S-L-S-R-L-T-A (RSLSRLTA) | 52 | 35 | 198 | 
A3: MMP-2 selective substrate peptide from phage clone A3, sequence A-K-P-R-A-L-T-A (AKPRALTA) | 14 | 21 | 2 | 
B37: MMP-2 selective substrate peptide from phage clone B37, sequence A-N-I-S-D-L-T-A (ANISDLTA) | 58 | 17 | 71 | 
B149: MT1-MMP selective substrate peptide from phage clone B149, sequence S-G-A-R-Y-R-W-L-T-A (Table V) (ARYRWLTA) |  |  |  | selectivity ratio: kcat/Km for MT1-MMP divided by kcat/Km for MMP-9 (MT1-MMP): 3
B49: MMP-2 selective substrate peptide from phage clone B49, sequence L-R-L-A-A-I-T-A (LRLAAITA) | 13 | 6 | 14 | 
A6: MMP-9 selective substrate peptide from phage clone A6, sequence S-G-P-R-A-V-S-T-T-A (Table V) (PRAVST) |  |  |  | selectivity ratio: kcat/Km for MMP-9 divided by kcat/Km for MMP-1 (MMP-9): 5; selectivity ratio: kcat/Km for MMP-9 divided by kcat/Km for MMP-7 (MMP-9): 47
A11: MMP-9 selective substrate peptide from phage clone A11, sequence S-G-K-I-P-R-T-L-T-A (Table V) (KIPRTLTA) |  |  |  | selectivity ratio: kcat/Km for MMP-9 divided by kcat/Km for MMP-1 (MMP-9): 3; selectivity ratio: kcat/Km for MMP-9 divided by kcat/Km for MMP-7 (MMP-9): 10
A42: MT1-MMP selective substrate peptide from phage clone A42, sequence S-G-R-I-G-F-L-R-T-A (Table V) (RIGFLRT) |  |  |  | selectivity ratio: kcat/Km for MT1-MMP divided by kcat/Km for MMP-9 (MT1-MMP): 54
B175: MT1-MMP selective substrate peptide from phage clone B175, sequence S-G-R-A-M-H-M-Y-T-A (Table V) (RAMHMYT) |  |  |  | selectivity ratio: kcat/Km for MT1-MMP divided by kcat/Km for MMP-9 (MT1-MMP): 19
AC-SGKIPRTATA-NH2 (Ac-SGKIPRTATA-NH2) [Clone A11m2] |  |  |  | kcat/Km ratio (MMP-9; hydrolysis by MMP-9): 2,000 M^−1s^−1; effect of substitution on kcat and Km (MMP-9; [1]): deleterious effects on both kcat and Km; reduction of kcat/Km ratio relative to peptide A11 (MMP-9; [1]): ~30 fold
A34: MMP-2 selective substrate peptide from phage clone A34, sequence N-R-Y-S-S-L-T-A (NRYSSLTA) | 24 | 84 | 40 | 
A21: MMP-2 selective substrate peptide from phage clone A21, sequence H-M-H-K-A-L-T-A (HMHKALTA) |  |  | 8 | 
C15: MMP-9 selective substrate peptide from phage clone C15, sequence S-G-K-G-P-R-Q-I-T-A (Table V) (KGPRQITA) |  |  |  | selectivity ratio: kcat/Km for MMP-9 divided by kcat/Km for MMP-1 (MMP-9): 12; selectivity ratio: kcat/Km for MMP-9 divided by kcat/Km for MMP-7 (MMP-9): 14
B96: MT1-MMP selective substrate peptide from phage clone B96, sequence S-G-L-I-S-H-S-I-T-A (Table V) (LISHSITA) |  |  |  | selectivity ratio: kcat/Km for MT1-MMP divided by kcat/Km for MMP-9 (MT1-MMP): 5
